Measured values as given in US9803013B2, “Biological materials and uses thereof” (BioInvent International AB, priority 2005, dated 2017).

B1: B11: fully human IgG1 antibody specific for ICAM-1; VH and VL sequences of FIG. 10 (SEQ ID NOs. 6 and 8) (antibody, listed as Homo sapiens, V domains shown)
VH: EVQLLESGGGLVQPGGSLRLSCAASGFTFSNAWMSWVRQAPGKGLEWVAFIWYDGSNKYYADSVKGRFTISRDNSKNTLYLQMNSLRAEDTAVYYCARYSGWYFDYWGQGTLVTVSS
VL: QSVLTQPPSASGTPGQRVTISCTGSSSNIGAGYDVHWYQQLPGTAPKLLIYDNNNRPSGVPDRFSGSKSGTSASLAISGLRSEDEADYYCQSYDSSLSAWLFGGGTKLTVLG
B2: C11: fully human IgG1 antibody specific for surface IgM; VH and VL sequences of FIG. 11 (SEQ ID NOs. 10 and 12) (antibody, listed as Homo sapiens, V domains shown)
VH: EVQLLESGGGLVQPGGSLRLSCAASGFTFGSYEMNWVRQAPGKGLEWVSVIYSGGSTYYADSVEGRFTISRDNSKNTLYLQMNSLRAEDTAVYYCARDTNPYYYYGMDVWGQGTLVTVSS
VL: QSVLTQPPSASGTPGQRVTISCSGSSSNIGNNAVNWYQQLPGTAPKLLIYRNNQRPSGVPDRFSGSKSGTSASLAISGLRSEDEADYYCQSYDSSLNGQVFGGGTKLTVLG

Key:
[1] = biological target: ICAM-1 (Homo sapiens, UniProt P05362); experiment: Binding to recombinant ICAM-1 (ELISA)
Description: FIG. 12C BI-505 binds specifically to ICAM-1. (a) Pre-incubation with recombinant ICAM-1, but not VCAM, blocks BI-505 binding to targeted tumor B cells.
(FIG. 21A) BI-505 IgG1, IgG4 and IgG1 N297Q antibodies were analyzed for binding to recombinant ICAM-1 by ELISA.

[2] = system: RPMI-8226 myeloma cells; experiment: NK-cell deficient NOD/Shi-scid/IL-2Rγ−/− mouse model; type: in vivo; conditions: RPMI-8226 grafted to NOD/Shi-scid/IL-2Rγ−/− mice
Description: (FIG. 20G) Tumor growth in BI-505 or control antibody treated NK-cell deficient NOD/Shi-scid/IL-2Rγ^−/− mice transplanted with RPMI-8226 myeloma cells. ***p<0.001.
Six-eight weeks-old female NOD/Shi-scid IL-2Rγ^−/− mice were obtained from Taconic, Denmark. Five million (5×10^6) RPMI-8226 or U266 tumor cells in 200 μL of RPMI 1640 were intravenously injected into the caudal vein (day 0). The tumor cell injection was performed 2 hr after whole body irradiation of mice (1.5 Gy, Cesium 137, IBL 637). At day 4, mice were randomized into 6 groups and treatment was initiated according to the schedule below.

[3] = system: Daudi B cell lymphoma xenografts; experiment: SCID/Daudi B cell lymphoma subcutaneous xenograft model; conditions: one day following tumor cell injection or established tumors
[4] = system: carcinoma cell lines initially tested; experiment: IgG binding to tumour cell lines, flow cytometry; set-up: species or system human; conditions: all carcinoma cell lines initially tested
Excerpt: FIG. 6—Binding of B1, B11, C11 IgG, to tumour cell lines of different origin. The antigen distribution of antigens targeted by the B1, B11, and C11 antibodies on different carcinoma cell lines was investigated by flow-cytometry.
The antigen distribution of human antibody targeted antigens, mainly for B11, on different carcinoma cell lines was investigated. Cells (MCF-7 and MDA MB 435S breast carcinoma, JAR and JEG-3 chorio-carcinoma, A549 lung carcinoma, TCC-SUP urinary bladder carcinoma, MDA MB 435 melanoma, HPAC, PANC-1 and BxPC-3 pancreatic carcinoma, PC-3 and DU145 prostate carcinoma, LS174 T, CaCo2, and Lovo colorectal carcinoma, and THP-1 monocytic leukaemia cells), were washed in PBS, and resuspended at 4×10^6 cells/ml in Complete Medium (200,000 cells/50 […] sample). […] Cells were incubated with either of the antibodies for 1 hour on ice, washed by resuspension in PBS/BSA 0.5%, centrifuged at 1200 rpm for 5 min, and complete aspiration of the supernatants was undertaken. Cells were incubated with PE-conjugated Goat F(ab′)2 anti-Human IgG (Caltag Laboratories, Cat no: H10104), diluted 1/50 in PBS/BSA 0.5%, for 30 min, on ice. Following resuspension of in 300 μl PBS/BSA 0.5%, cells were analysed for IgG binding using a FACScan instrument.

Chain of ICAM-1 (P05362 28-532): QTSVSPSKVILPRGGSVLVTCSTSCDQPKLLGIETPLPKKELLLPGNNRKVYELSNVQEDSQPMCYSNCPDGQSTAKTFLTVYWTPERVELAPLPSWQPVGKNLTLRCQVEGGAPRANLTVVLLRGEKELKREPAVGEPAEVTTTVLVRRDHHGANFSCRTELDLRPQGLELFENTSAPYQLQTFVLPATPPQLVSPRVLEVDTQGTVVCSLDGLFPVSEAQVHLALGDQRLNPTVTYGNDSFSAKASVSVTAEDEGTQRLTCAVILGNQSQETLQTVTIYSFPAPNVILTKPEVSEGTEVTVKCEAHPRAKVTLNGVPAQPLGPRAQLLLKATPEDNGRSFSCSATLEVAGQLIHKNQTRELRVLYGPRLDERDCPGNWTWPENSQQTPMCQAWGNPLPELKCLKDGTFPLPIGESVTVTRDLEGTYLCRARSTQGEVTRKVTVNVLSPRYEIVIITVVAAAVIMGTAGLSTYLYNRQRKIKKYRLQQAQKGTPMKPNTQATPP

Molecule	binding to recombinant protein [1]	antitumor activity [2]	survival [3]	tumor growth [3]	binding [4]
B1	binds dose-dependently	significant antitumor activity	prolonged survival	significantly prevented tumor growth	–
B2	–	–	–	–	lack of binding
